{
  "source": "patent US20240417437A1",
  "about": "“Linker Polypeptides” (Trutino Biosciences Inc., priority 2021, published 2024)",
  "key": {"[1]": {"conditions": "Link_TGS6; cited from earlier work"}, "[2]": {"tested_on": "EMT6 breast cancer syngeneic model", "assay": "Real-time whole-body imaging of Dylight 650 labelled IL-2 fusion proteins in tumors", "type": "in vivo", "conditions": "8 mg/kg IV once, each time-point over 96 hours, EMT6 tumor-bearing BALB/c mice", "procedure": "The levels of IL-2 fusion proteins present in tumors in vivo were assessed by utilizing fluorescently labelled proteins and real-time whole-body imaging. Non-cleavable Construct GGG and Construct DD were conjugated to Dylight 650 probe according to the manufacturer's protocol (Dylight 650 Antibody labeling kit, ThermoFisher). […] BALB/c mice were subcutaneously inoculated with EMT6 breast cancer syngeneic model, and when the average tumor volume reached 240 mm^3, animals were randomized into 3 groups based on tumor volumes (n=2 mice per treatment group).\nFollowing administration of a single dose of the labeled IL-2 fusion proteins to tumor-bearing mice, fluorescent images (excitation 640/emission 680 consistent with Dylight 650 probe ex/em spectra) were captured over 96 hours on an IVIS system (PerkinElmer, IVIS Lumina Series III) and are shown in FIG. 5A. The fluorescence intensity in tumor areas was quantified across the groups, average background tumor fluorescence (group 1) was subtracted from group 2 and 3 values at each time-point, and data were normalized to the initial fluorescence intensity of same amount of each labeled protein. […] This signifies next generation retention linker Construct DD accumulated and was retained in tumors at 2-fold higher levels compared to IL-2 fusion protein Construct GGG, lacking any targeting sequence."}, "B16F10 melanoma cells [3]": {"tested_on": "B16F10 melanoma cells", "assay": "B16F10 melanoma tumor growth inhibition study", "type": "in vivo", "conditions": "20 mg/kg IV Q3D, 5 doses, B16F10 in C57BL/6 mice", "procedure": "C57BL/6 mice were subcutaneously inoculated with B16F10 melanoma cells and when the average tumor volume reached on average 70-90 mm^3, animals were randomized into 6 groups based on tumor volumes (n=8 mice per treatment group). Mice were dosed intravenously every 3 days (Q3D) for a total of 5 doses according to Table 7.\nTumor volumes were measured twice a week for the duration of the study. […] On day 14, animals were sacrificed, and tissues and blood (processed to serum) were collected 24 hours post final dose (dose #5) and stored at −80° C. until further testing."}, "B16F10 melanoma cells [4]": {"tested_on": "B16F10 melanoma cells", "assay": "Tumor lysate levels of full-length fusion protein (ELISA), IL-2 and IFN-γ (Luminex), B16F10 study", "type": "in vivo, C57BL/6 mice", "conditions": "tumor lysate 24 hours after last dose", "procedure": "An ELISA assay was developed to detect and quantify prodrug fusion proteins comprising IL-2 and IL-2Ra moieties. Wells of a 96-well plate were coated overnight with 100 μL of a rat anti-mouse IL-2 monoclonal antibody (JES6-1A12; ThermoFisher) at […] in PBS. After washing, wells are blocked with TBS/0.05% Tween 20/1% BSA, then fusion proteins and/or unknown biological samples were added for 1 hour at room temperature. After washing, an anti-mouse IL-2Ra biotin-labelled detection antibody (BAF2438, R&D systems) was added and binding was detected using Ultra Strepavidin HRP (ThermoFisher). The ELISA plate was developed by adding the chromogenic tetramethylbenzidine substrate (Ultra TMB, ThermoFisher). The reaction was stopped by addition of 0.5 M H2SO4, and the absorbance was read at 450-650 nm.\nThe levels of full-length IL-2-IL-2Ra fusion proteins, IL-2, and IFN-7 were quantified in tumor samples collected during a pre-clinical efficacy study comparing a panel of retention linker IL-2 fusion drugs (see Example 10).\nTumors (n=3 per group) were collected 24 hours after the last dose injection, flash frozen, and stored at −80° C. until further processing. Tumor lysates were generated using tissue extraction reagent (ThermoFisher) supplemented with protease and phosphatase inhibitors. Standard techniques and protein concentrations were determined using the BCA assay (Pierce). […]"}, "collagen": {"tested_on": "collagen", "assay": "Collagen-agarose pulldown assay with IL-2 immunoblot", "type": "binding", "conditions": "for binding to collagen-agarose beads (pulldown): 18-22 hours at 4° C.", "procedure": "To test binding to collagen, a pulldown assay using agarose cross-linked to collagen (Sigma) was performed. IL-2 fusion proteins were incubated with collagen-agarose or control agarose beads for 18-22 hours at 4° C. with gentle rotation in 1% BSA/PBS-0.05% Tween 20. After washing, proteins bound to the beads were eluted by resuspending beads in SDS sample buffer (Life Technologies). Bound proteins were then separated by SDS-PAGE on 4-12% BisTris gradient gel, followed by immunoblotting with goat anti-mouse IL-2 polyclonal antibody (AF-402-NA; R&D systems). Donkey anti-goat HRP-conjugated antibody was used for detection (Jackson Immuno Research, West Grove, PA), and the blot was developed using the SuperSignal West Femto Maximum sensitivity detection reagent (ThermoFisher) following the manufacturer's recommendations."}},
  "data": [
    {"molecule": "641 (protein, Synthetic: hyaluronic acid; pH dependent (Link_TGS6)) GVYHREARSGKYKLTYAEAKAVCEFEGGHLATYKGLEAARKIGFHVCAAGWMAKGRVGYPIVKPGPPNCGFGKTGIIDYGIRLNRSERWDAYCYNPHA", "values": [
      {"measurement": "Note 2: pH dependence of binding to hyaluronic acid", "setting": "[1]", "value": "binds better at lower pH"}
    ]},
    {"molecule": "Construct DD: mIL2-2x(GHHPH)-MMPscr-2x(G4S)-mIL2Ra(1-215)-muIgG1Fc; pH heparin (protein, Synthetic: Construct DD, mIL2-2x(GHHPH)-MMPscr-2x(G4S)-mIL2Ra(1-215)-muIgG1Fc; pH heparin) APTSSSTSSSTAEAQQQQQQQQQQQQHLEQLLMDLQELLSRMENYRNLKLPRMLTFKFYLPKQATELKDLQCLEDELGPLRHVLDLTQSKSFQLEDAENFISNIRVTVVKLKGSDNTFECQFDDESATVVDFLRRWIAFCQSIISTSPQGHHPHGHHPHGVRLGPGGGGGSGGGGSELCLYDPPEVPNATFKALSYKNGTILNCECKRGFRRLKELVYMRCLGNSWSSNCQCTSNSHDKSRKQVTAQLEHQKEQQTTTDMQKPTQSMHQENLTGHCREPPPWKHEDSKRIYHFVEGQSVHYECIPGYKALQRGPAISICKMKCGKTGWTQPQLTCVDEREHHRFLASEESQGSRNSSPESETSCPITTTDFPQPTETTAMTETFVLTMEYKGCKPCICTVPEVSSVFIFPPKPKDVLTITLTPKVTCVVVDISKDDPEVQFSWFVDDVEVHTAQTQPREEQFNSTFRSVSELPIMHQDWLNGKEFKCRVNSAAFPAPIEKTISKTKGRPKAPQVYTIPPPKEQMAKDKVSLTCMITDFFPEDITVEWQWNGQPAENYKNTQPIMDTDGSYFVYSKLNVQKSNWEAGNTFTCSVLHEGLHNHHTEKSLSHSPGK", "values": [
      {"measurement": "tumor-associated fluorescence / level retained in tumors, fold higher compared to Construct GGG", "setting": "[2]", "value": "roughly 2 fold"}
    ]},
    {"molecule": "Construct III: mIL2-VRIQRKKEKMKET-MMPcs1-GGSKLWVLPKGS-mIL2Ra-muIgG1Fc; hep/col IV (protein, Synthetic: Construct III, mIL2-…-MMPcs1-…-mIL2Ra-muIgG1Fc; hep/col IV) APTSSSTSSSTAEAQQQQQQQQQQQQHLEQLLMDLQELLSRMENYRNLKLPRMLTFKFYLPKQATELKDLQCLEDELGPLRHVLDLTQSKSFQLEDAENFISNIRVTVVKLKGSDNTFECQFDDESATVVDFLRRWIAFCQSIISTSPQVRIQRKKEKMKETGPLGVRGGGSKLWVLPKGSELCLYDPPEVPNATFKALSYKNGTILNCECKRGFRRLKELVYMRCLGNSWSSNCQCTSNSHDKSRKQVTAQLEHQKEQQTTTDMQKPTQSMHQENLTGHCREPPPWKHEDSKRIYHFVEGQSVHYECIPGYKALQRGPAISICKMKCGKTGWTQPQLTCVDEREHHRFLASEESQGSRNSSPESETSCPITTTDFPQPTETTAMTETFVLTMEYKGCKPCICTVPEVSSVFIFPPKPKDVLTITLTPKVTCVVVDISKDDPEVQFSWFVDDVEVHTAQTQPREEQFNSTFRSVSELPIMHQDWLNGKEFKCRVNSAAFPAPIEKTISKTKGRPKAPQVYTIPPPKEQMAKDKVSLTCMITDFFPEDITVEWQWNGQPAENYKNTQPIMDTDGSYFVYSKLNVQKSNWEAGNTFTCSVLHEGLHNHHTEKSLSHSPGK", "values": [
      {"measurement": "tumor growth inhibition (TGI)", "setting": "B16F10 melanoma cells [3]", "value": 83.5, "unit": "%"},
      {"measurement": "levels of IFN-7 in tumors", "setting": "B16F10 melanoma cells [4]", "value": "enhanced"},
      {"measurement": "IL-2 intratumoral levels", "setting": "B16F10 melanoma cells [4]; compared to other arms", "value": "highest"}
    ]},
    {"molecule": "Construct GG: mIL2-SGG-KLWVLPK-MMPcs1-2x(G4S)-mIL2Ra(1-215)-muIgG1Fc; collagen IV (protein, Synthetic: Construct GG, mIL2-SGG-KLWVLPK-MMPcs1-2x(G4S)-mIL2Ra(1-215)-muIgG1Fc; collagen IV) APTSSSTSSSTAEAQQQQQQQQQQQQHLEQLLMDLQELLSRMENYRNLKLPRMLTFKFYLPKQATELKDLQCLEDELGPLRHVLDLTQSKSFQLEDAENFISNIRVTVVKLKGSDNTFECQFDDESATVVDFLRRWIAFCQSIISTSPQSGGKLWVLPKGPLGVRGGGGGSGGGGSELCLYDPPEVPNATFKALSYKNGTILNCECKRGFRRLKELVYMRCLGNSWSSNCQCTSNSHDKSRKQVTAQLEHQKEQQTTTDMQKPTQSMHQENLTGHCREPPPWKHEDSKRIYHFVEGQSVHYECIPGYKALQRGPAISICKMKCGKTGWTQPQLTCVDEREHHRFLASEESQGSRNSSPESETSCPITTTDFPQPTETTAMTETFVLTMEYKGCKPCICTVPEVSSVFIFPPKPKDVLTITLTPKVTCVVVDISKDDPEVQFSWFVDDVEVHTAQTQPREEQFNSTFRSVSELPIMHQDWLNGKEFKCRVNSAAFPAPIEKTISKTKGRPKAPQVYTIPPPKEQMAKDKVSLTCMITDFFPEDITVEWQWNGQPAENYKNTQPIMDTDGSYFVYSKLNVQKSNWEAGNTFTCSVLHEGLHNHHTEKSLSHSPGK", "values": [
      {"measurement": "binding to collagen-agarose beads (pulldown)", "setting": "collagen", "value": "specifically bound"},
      {"measurement": "fraction bound, fold higher than the fraction of bound Construct B", "setting": "collagen; blot quantitation", "value": 2.5, "unit": "fold"}
    ]},
    {"molecule": "Construct II: mIL2-LHERHLNNN-MMPcs1-2x(G4S)-mIL2Ra(1-215)-muIgG1Fc; collagen I (protein, Synthetic: Construct II, mIL2-…-MMPcs1-2x(G4S)-mIL2Ra(1-215)-muIgG1Fc; collagen I) APTSSSTSSSTAEAQQQQQQQQQQQQHLEQLLMDLQELLSRMENYRNLKLPRMLTFKFYLPKQATELKDLQCLEDELGPLRHVLDLTQSKSFQLEDAENFISNIRVTVVKLKGSDNTFECQFDDESATVVDFLRRWIAFCQSIISTSPQSLHERHLNNNGPLGVRGGGGGSGGGGSELCLYDPPEVPNATFKALSYKNGTILNCECKRGFRRLKELVYMRCLGNSWSSNCQCTSNSHDKSRKQVTAQLEHQKEQQTTTDMQKPTQSMHQENLTGHCREPPPWKHEDSKRIYHFVEGQSVHYECIPGYKALQRGPAISICKMKCGKTGWTQPQLTCVDEREHHRFLASEESQGSRNSSPESETSCPITTTDFPQPTETTAMTETFVLTMEYKGCKPCICTVPEVSSVFIFPPKPKDVLTITLTPKVTCVVVDISKDDPEVQFSWFVDDVEVHTAQTQPREEQFNSTFRSVSELPIMHQDWLNGKEFKCRVNSAAFPAPIEKTISKTKGRPKAPQVYTIPPPKEQMAKDKVSLTCMITDFFPEDITVEWQWNGQPAENYKNTQPIMDTDGSYFVYSKLNVQKSNWEAGNTFTCSVLHEGLHNHHTEKSLSHSPGK", "values": [
      {"measurement": "binding to collagen-agarose beads (pulldown)", "setting": "collagen", "value": "specifically bound"}
    ]}
  ]
}
